Measured values: patent US20060172940

Target: T1, synthetic full length mucocidin peptide (46-mer)
T1 chain: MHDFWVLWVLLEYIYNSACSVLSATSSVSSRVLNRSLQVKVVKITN

B1: guinea pig liver transglutaminase (protein)
chain: AEDLILERCDLQLEVNGRDHRTADLCRERLVLRRGQPFWLTLHFEGRGYEAGVDTLTFNAVTGPDPSEEAGTMARFSLSSAVEGGTWSASAVDQQDSTVSLLLSTPADAPIGLYRLSLEASTGYQGSSFVLGHFILLYNPRCPADAVYMDSDQERQEYVLTQQGFIYQGSAKFINGIPWNFGQFEDGILDICLMLLDTNPKFLKNAGQDCSRRSRPVYVGRVVSAMVNCNDDQGVLQGRWDNNYSDGVSPMSWIGSVDILRRWKDYGCQRVKYGQCWVFAAVACTVLRCLGIPTRVVTNFNSAHDQNSNLLIEYFRNESGEIEGNKSEMIWNFHCWVESWMTRPDLEPGYEGWQALDPTPQEKSEGTYCCGPVPVRAIKEGHLNVKYDAPFVFAEVNADVVNWIRQKDGSLRKSINHLVVGLKISTKSVGRDEREDITHTYKYPEGSEEEREAFVRANHLNKLATKEEAQEETGVAMRIRVGQNMTMGSDFDIFAYITNGTAESHECQLLLCARIVSYNGVLGPVCSTNDLLNLTLDPFSENSIPLHILYEKYGDYLTESNLIKVRGLLIEPAANSYVLAERDIYLENPEIKIRVLGEPKQNRKLIAEVSLKNPLPVPLLGCIFTVEGAGLTKDQKSVEVPDPVEAGEQAKVRVDLLPTEVGLHKLVVNFECDKLKAVKGYRNVIIGPA
  Transglutaminase catalyzed monodansylcadaverine (MDC) incorporation into mucocidin: The time-dependent uptake of MDC into mucocidin (FIG. 4C) was detected only in the presence of Ca^++ but not in its absence
